Data: patent publication US20240117018A1

Experiments:
Test in all cases: cell-based or functional assay
[1] = biological target: HIV-1 Env of pseudovirus R2184.c04 (HIV-1)
[2] = biological target: HIV-1 Env of pseudovirus P1981_C5_3 (HIV-1)
[3] = biological target: HIV-1 Env of pseudovirus 89-F1_2_25 (HIV-1)
[4] = biological target: HIV-1 Env of pseudovirus R3265.c06 (HIV-1)
[5] = biological target: HIV-1 Env of pseudovirus P0402_c2_11 (HIV-1)
[6] = biological target: HIV-1 Env of pseudovirus A07412M1.vrc12 (HIV-1)
[7] = biological target: HIV-1 Env of pseudovirus BJOX010000.06.2 (HIV-1)
[8] = biological target: HIV-1 Env of pseudovirus T251-18 (HIV-1)
[9] = biological target: HIV-1 Env of pseudovirus 3016.v5.c45 (HIV-1)
[10] = biological target: HIV-1 Env of pseudovirus X1632_S2_B10 (HIV-1)
[11] = biological target: HIV-1 Env of pseudovirus X1254_c3 (HIV-1)
[12] = biological target: HIV-1 Env of pseudovirus 263-8 (HIV-1)
[13] = biological target: HIV-1 Env of pseudovirus BJOX015000.11.5 (HIV-1)
[14] = biological target: HIV-1 Env of pseudovirus 0815.v3.c3 (HIV-1)
[15] = biological target: HIV-1 Env of pseudovirus 6811.v7.c18 (HIV-1)
[16] = biological target: HIV-1 Env of pseudovirus BJOX028000.10.3 (HIV-1)
[17] = biological target: HIV-1 Env of pseudovirus 928-28 (HIV-1)
[18] = biological target: HIV-1 Env of pseudovirus 6480.v4.c25 (HIV-1)
[19] = biological target: HIV-1 Env of pseudovirus X2131_C1_B5 (HIV-1)
[20] = biological target: HIV-1 Env of pseudovirus BJOX025000.01.1 (HIV-1)
[21] = biological target: HIV-1 Env of pseudovirus 3817.v2.c59 (HIV-1)
[22] = biological target: HIV-1 Env of pseudovirus 231966.c02 (HIV-1)
[23] = biological target: HIV-1 Env of pseudovirus R1166.c01 (HIV-1)
[24] = biological target: HIV-1 Env of pseudovirus X1193_c1 (HIV-1)
[25] = biological target: HIV-1 Env of pseudovirus 191955_A11 (HIV-1)
[26] = biological target: HIV-1 Env of pseudovirus 3301.v1.c24 (HIV-1)
[27] = biological target: HIV-1 Env of pseudovirus 191084 B7-19 (HIV-1)
[28] = biological target: HIV-1 Env of pseudovirus C4118.c09 (HIV-1)
[29] = biological target: HIV-1 Env of pseudovirus 6545.v4.c1 (HIV-1)
[30] = biological target: HIV-1 Env of pseudovirus 211-9 (HIV-1)
[31] = biological target: HIV-1 Env of pseudovirus 620345.c01 (HIV-1)
[32] = biological target: HIV-1 Env of pseudovirus 6540.v4.c1 (HIV-1)
[33] = biological target: HIV-1 Env of pseudovirus T255-34 (HIV-1)
[34] = biological target: HIV-1 Env of pseudovirus 9004SS_A3_4 (HIV-1)
[35] = biological target: HIV-1 Env of pseudovirus C1080.c03 (HIV-1)
[36] = biological target: HIV-1 Env of pseudovirus 235-47 (HIV-1)

N49P9.1 (antibody)
neutralization IC50 [1]: 0.019 µg/mL | neutralization IC80 [1]: 0.057 µg/mL | neutralization MPI [1]: 100 | neutralization IC50 [2]: 0.469 µg/mL | neutralization IC80 [2]: 1.52 µg/mL | neutralization MPI [2]: 100 | neutralization IC50 [3]: > 50 µg/mL | neutralization IC80 [3]: > 50 µg/mL | neutralization MPI [3]: 23 | neutralization IC50 [4]: 0.469 µg/mL | neutralization IC80 [4]: 1.62 µg/mL | neutralization MPI [4]: 100 | neutralization IC50 [5]: 0.06 µg/mL | neutralization IC80 [5]: 0.163 µg/mL | neutralization MPI [5]: 100 | neutralization IC50 [6]: 0.189 µg/mL | neutralization IC80 [6]: 0.947 µg/mL | neutralization MPI [6]: 100 | neutralization IC50 [7]: 0.883 µg/mL | neutralization IC80 [7]: 4.26 µg/mL | neutralization MPI [7]: 100 | neutralization IC50 [8]: 0.127 µg/mL | neutralization IC80 [8]: 0.352 µg/mL | neutralization MPI [8]: 100 | neutralization IC50 [9]: 0.076 µg/mL | neutralization IC80 [9]: 0.223 µg/mL | neutralization MPI [9]: 100 | neutralization IC50 [10]: > 50 µg/mL | neutralization IC80 [10]: > 50 µg/mL | neutralization MPI [10]: 10 | neutralization IC50 [11]: 0.101 µg/mL | neutralization IC80 [11]: 0.278 µg/mL | neutralization MPI [11]: 100 | neutralization IC50 [12]: 0.049 µg/mL | neutralization IC80 [12]: 0.17 µg/mL | neutralization MPI [12]: 100 | neutralization IC50 [13]: 0.068 µg/mL | neutralization IC80 [13]: 0.478 µg/mL | neutralization MPI [13]: 100 | neutralization IC50 [14]: 0.012 µg/mL | neutralization IC80 [14]: 0.041 µg/mL | neutralization MPI [14]: 100 | neutralization IC50 [15]: 0.398 µg/mL | neutralization IC80 [15]: 1.76 µg/mL | neutralization MPI [15]: 97 | neutralization IC50 [16]: 0.04 µg/mL | neutralization IC80 [16]: 0.2 µg/mL | neutralization MPI [16]: 100 | neutralization IC50 [17]: 0.163 µg/mL | neutralization IC80 [17]: 0.695 µg/mL | neutralization MPI [17]: 100 | neutralization IC50 [18]: 0.03 µg/mL | neutralization IC80 [18]: 0.082 µg/mL | neutralization MPI [18]: 100 | neutralization IC50 [19]: 0.143 µg/mL | neutralization IC80 [19]: 0.476 µg/mL | neutralization MPI [19]: 100 | neutralization IC50 [20]: 0.131 µg/mL | neutralization IC80 [20]: 0.67 µg/mL | neutralization MPI [20]: 100 | neutralization IC50 [21]: 1.35 µg/mL | neutralization IC80 [21]: 8.26 µg/mL | neutralization MPI [21]: 95 | neutralization IC50 [22]: 0.067 µg/mL | neutralization IC80 [22]: 0.237 µg/mL | neutralization MPI [22]: 100 | neutralization IC50 [23]: 0.073 µg/mL | neutralization IC80 [23]: 0.232 µg/mL | neutralization MPI [23]: 100 | neutralization IC50 [24]: 0.042 µg/mL | neutralization IC80 [24]: 0.15 µg/mL | neutralization MPI [24]: 100 | neutralization IC50 [25]: > 50 µg/mL | neutralization IC80 [25]: > 50 µg/mL | neutralization MPI [25]: 26 | neutralization IC50 [26]: 0.059 µg/mL | neutralization IC80 [26]: 0.178 µg/mL | neutralization MPI [26]: 100 | neutralization IC50 [27]: 0.097 µg/mL | neutralization IC80 [27]: 0.259 µg/mL | neutralization MPI [27]: 100 | neutralization IC50 [28]: 0.062 µg/mL | neutralization IC80 [28]: 0.218 µg/mL | neutralization MPI [28]: 100 | neutralization IC50 [29]: > 50 µg/mL | neutralization IC80 [29]: > 50 µg/mL | neutralization MPI [29]: 6 | neutralization IC50 [30]: 0.17 µg/mL | neutralization IC80 [30]: 0.579 µg/mL | neutralization MPI [30]: 100 | neutralization IC50 [31]: > 50 µg/mL | neutralization IC80 [31]: > 50 µg/mL | neutralization MPI [31]: 7 | neutralization IC50 [32]: > 50 µg/mL | neutralization IC80 [32]: > 50 µg/mL | neutralization MPI [32]: 30 | neutralization IC50 [33]: 0.092 µg/mL | neutralization IC80 [33]: 0.286 µg/mL | neutralization MPI [33]: 100 | neutralization IC50 [34]: 0.323 µg/mL | neutralization IC80 [34]: 1.13 µg/mL | neutralization MPI [34]: 100 | neutralization IC50 [35]: 0.156 µg/mL | neutralization IC80 [35]: 0.939 µg/mL | neutralization MPI [35]: 100 | neutralization IC50 [36]: 0.045 µg/mL | neutralization IC80 [36]: 0.352 µg/mL | neutralization MPI [36]: 98

N49P9 (antibody)
neutralization IC50 [1]: 0.015 µg/mL | neutralization IC80 [1]: 0.034 µg/mL | neutralization MPI [1]: 100 | neutralization IC50 [2]: 0.308 µg/mL | neutralization IC80 [2]: 0.701 µg/mL | neutralization MPI [2]: 100 | neutralization IC50 [3]: > 50 µg/mL | neutralization IC80 [3]: > 50 µg/mL | neutralization MPI [3]: 23 | neutralization IC50 [4]: 0.135 µg/mL | neutralization IC80 [4]: 0.812 µg/mL | neutralization MPI [4]: 100 | neutralization IC50 [5]: 0.028 µg/mL | neutralization IC80 [5]: 0.085 µg/mL | neutralization MPI [5]: 100 | neutralization IC50 [6]: 0.142 µg/mL | neutralization IC80 [6]: 0.636 µg/mL | neutralization MPI [6]: 100 | neutralization IC50 [7]: 0.482 µg/mL | neutralization IC80 [7]: 2.34 µg/mL | neutralization MPI [7]: 100 | neutralization IC50 [8]: 0.147 µg/mL | neutralization IC80 [8]: 0.517 µg/mL | neutralization MPI [8]: 100 | neutralization IC50 [9]: 0.06 µg/mL | neutralization IC80 [9]: 0.209 µg/mL | neutralization MPI [9]: 100 | neutralization IC50 [10]: 46.7 µg/mL | neutralization IC80 [10]: > 50 µg/mL | neutralization MPI [10]: 51 | neutralization IC50 [11]: 0.04 µg/mL | neutralization IC80 [11]: 0.104 µg/mL | neutralization MPI [11]: 100 | neutralization IC50 [12]: 0.032 µg/mL | neutralization IC80 [12]: 0.161 µg/mL | neutralization MPI [12]: 100 | neutralization IC50 [13]: 0.089 µg/mL | neutralization IC80 [13]: 0.375 µg/mL | neutralization MPI [13]: 100 | neutralization IC50 [14]: 0.02 µg/mL | neutralization IC80 [14]: 0.057 µg/mL | neutralization MPI [14]: 100 | neutralization IC50 [15]: 0.249 µg/mL | neutralization IC80 [15]: 1.2 µg/mL | neutralization MPI [15]: 99 | neutralization IC50 [16]: 0.031 µg/mL | neutralization IC80 [16]: 0.134 µg/mL | neutralization MPI [16]: 100 | neutralization IC50 [17]: 0.094 µg/mL | neutralization IC80 [17]: 0.339 µg/mL | neutralization MPI [17]: 100 | neutralization IC50 [18]: 0.017 µg/mL | neutralization IC80 [18]: 0.047 µg/mL | neutralization MPI [18]: 100 | neutralization IC50 [19]: 0.082 µg/mL | neutralization IC80 [19]: 0.274 µg/mL | neutralization MPI [19]: 100 | neutralization IC50 [20]: 0.055 µg/mL | neutralization IC80 [20]: 0.252 µg/mL | neutralization MPI [20]: 100 | neutralization IC50 [21]: 1.09 µg/mL | neutralization IC80 [21]: 5.86 µg/mL | neutralization MPI [21]: 100 | neutralization IC50 [22]: 0.074 µg/mL | neutralization IC80 [22]: 0.244 µg/mL | neutralization MPI [22]: 100 | neutralization IC50 [23]: 0.064 µg/mL | neutralization IC80 [23]: 0.223 µg/mL | neutralization MPI [23]: 100 | neutralization IC50 [24]: 0.025 µg/mL | neutralization IC80 [24]: 0.081 µg/mL | neutralization MPI [24]: 100 | neutralization IC50 [25]: > 50 µg/mL | neutralization IC80 [25]: > 50 µg/mL | neutralization MPI [25]: 35 | neutralization IC50 [26]: 0.072 µg/mL | neutralization MPI [26]: 100 | neutralization IC50 [27]: 0.042 µg/mL | neutralization IC80 [27]: 0.129 µg/mL | neutralization MPI [27]: 100 | neutralization IC50 [28]: 0.072 µg/mL | neutralization IC80 [28]: 0.2 µg/mL | neutralization MPI [28]: 100 | neutralization IC50 [29]: > 50 µg/mL | neutralization IC80 [29]: > 50 µg/mL | neutralization MPI [29]: 20 | neutralization IC50 [30]: 0.136 µg/mL | neutralization IC80 [30]: 0.485 µg/mL | neutralization MPI [30]: 100 | neutralization IC50 [31]: > 50 µg/mL | neutralization IC80 [31]: > 50 µg/mL | neutralization MPI [31]: 9 | neutralization IC50 [32]: > 50 µg/mL | neutralization IC80 [32]: > 50 µg/mL | neutralization MPI [32]: 49 | neutralization IC50 [33]: 0.051 µg/mL | neutralization IC80 [33]: 0.247 µg/mL | neutralization MPI [33]: 100 | neutralization IC50 [34]: 0.175 µg/mL | neutralization IC80 [34]: 0.751 µg/mL | neutralization MPI [34]: 100 | neutralization IC50 [35]: 0.119 µg/mL | neutralization IC80 [35]: 0.575 µg/mL | neutralization MPI [35]: 100 | neutralization IC50 [36]: 0.072 µg/mL | neutralization IC80 [36]: 0.271 µg/mL | neutralization MPI [36]: 98
